# B1: GST-Kv7.2 AB (helices AB fused to GST) (domain or fragment)
# chain: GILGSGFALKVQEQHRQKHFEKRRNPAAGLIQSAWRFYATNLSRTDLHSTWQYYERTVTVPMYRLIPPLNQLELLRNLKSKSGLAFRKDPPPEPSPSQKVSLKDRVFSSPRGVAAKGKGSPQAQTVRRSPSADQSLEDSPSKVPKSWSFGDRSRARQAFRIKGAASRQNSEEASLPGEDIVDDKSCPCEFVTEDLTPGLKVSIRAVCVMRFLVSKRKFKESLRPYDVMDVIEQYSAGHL
# What was measured:
# [1] = biological target: T1, dansylated calmodulin (D-CaM, 5-(dimethylamino)naphtalene-1-sulfonyl-calmodulin) (rat, UniProt P0DP29 1-149, dansyl (5-(dimethylamino)naphtalene-1-sulfonyl) label, residue not stated); test: other fluorescence titration; D-CaM 12.5 nM in the cuvette, increasing concentrations of GST-fusion protein; no Ca2+ (EGTA 10 mM); Tris-HCl 25 mM pH 7.4, KCl 120 mM, NaCl 5 mM, MgCl2 2 mM; 25 °C; apparent affinity (EC50 of a Hill fit to the fluorescence enhancement); details: both partners purified
# [2] = biological target: T1, dansylated calmodulin (D-CaM, …); test: other fluorescence titration; as a2 but with an excess of free Ca2+ (3.9 µM; 9.63 mM Ca2+ added to the Fluorescence buffer); apparent affinity (EC50); details: both partners purified
binder,measurement,setting,value
B1,EC50,[1],11 nM
same,EC50,[2],27.1 nM

# — PMC5647379, “Calmodulin confers calcium sensitivity to the stability of the distal intracellular assembly domain of Kv7.2 channels” (Scientific Reports, 2017)
